# Reference: article PMC3101105 (Journal of the American Chemical Society, 2011)
# B1: fluoroacetate dehalogenase RPA1163 (wild type) (enzyme, Rhodopseudomonas palustris CGA009)
# chain: MPDLADLFPGFGSEWINTSSGRIFARVGGDGPPLLLLHGFPQTHVMWHRVAPKLAERFKVIVADLPGYGWSDMPESDEQHTPYTKRAMAKQLIEAMEQLGHVHFALAGHDRGARVSYRLALDSPGRLSKLAVLDILPTYEYWQRMNRAYALKIYHWSFLAQPAPLPENLLGGDPDFYVKAKLASWTRAGDLSAFDPRAVEHYRIAFADPMRRHVMCEDYRAGAYADFEHDKIDVEAGNKIPVPMLALWGASGIAQSAATPLDVWRKWASDVQGAPIESGHFLPEEAPDQTAEALVRFFSAAP
# Key:
# [1] = system: O=C(O)CCl; assay: isothermal microcalorimetry steady-state kinetics; assay type: biochemical, Rhodopseudomonas palustris; settings: 100 mM Tris-H2SO4 pH 8.5, 30°C
# [2] = target: fluoroacetate dehalogenase (FAcD) RPA1163 (Rhodopseudomonas palustris, UniProt Q6NAM1, Y219F); assay: isothermal microcalorimetry steady-state kinetics; assay type: biochemical; settings: read-out: Fluoroacetate / Km; 100 mM Tris-H2SO4 pH 8.5, 30°C
# [3] = target: fluoroacetate dehalogenase (FAcD) RPA1163 (Rhodopseudomonas palustris, UniProt Q6NAM1, F40A); assay: isothermal microcalorimetry steady-state kinetics; assay type: biochemical; settings: read-out: Fluoroacetate / Km; 100 mM Tris-H2SO4 pH 8.5, 30°C
# [4] = target: fluoroacetate dehalogenase (FAcD) RPA1163 (Rhodopseudomonas palustris, UniProt Q6NAM1, W185F); assay: isothermal microcalorimetry steady-state kinetics; assay type: biochemical; settings: read-out: Fluoroacetate / Km; 100 mM Tris-H2SO4 pH 8.5, 30°C
# [5] = target: fluoroacetate dehalogenase (FAcD) RPA1163 (Rhodopseudomonas palustris, UniProt Q6NAM1, H155N); assay: isothermal microcalorimetry steady-state kinetics; assay type: biochemical; settings: read-out: Fluoroacetate / Km; 100 mM Tris-H2SO4 pH 8.5, 30°C
# [6] = target: fluoroacetate dehalogenase (FAcD) RPA1163 (Rhodopseudomonas palustris, UniProt Q6NAM1, W156H); assay: isothermal microcalorimetry steady-state kinetics; assay type: biochemical; settings: read-out: Fluoroacetate / Km; 100 mM Tris-H2SO4 pH 8.5, 30°C
# [7] = target: the molecule itself; assay: crystal structure
Molecule,Km [1],kcat [1],kcat/Km [1],further results
fluoroacetate dehalogenase (FAcD) RPA1163 (Rhodopseudomonas palustris CGA009; Y219F),1000 ± 70 µM,0.007 ± 0.000667 s⁻¹,7 M⁻¹ s⁻¹,–
fluoroacetate dehalogenase (FAcD) RPA1163 (Rhodopseudomonas palustris CGA009; W185F),1000 ± 300 µM,0.00533 ± 0.000667 s⁻¹,5 M⁻¹ s⁻¹,–
fluoroacetate dehalogenase (FAcD) RPA1163 (Rhodopseudomonas palustris CGA009; W156H),6000 ± 1000 µM,0.00167 ± 0.000333 s⁻¹,0.27 M⁻¹ s⁻¹,–
O=C(O)CF [fluoroacetate],–,–,–,Km [2]: 1700 ± 200 µM; Km [3]: 4400 ± 800 µM; Km [4]: 3300 ± 600 µM; Km [5]: 2900 ± 200 µM; Km [6]: 8000 ± 3000 µM
fluoroacetate dehalogenase (FAcD) RPA1163 (Rhodopseudomonas palustris CGA009; H155N),2000 ± 300 µM,0.0883 ± 0.00833 s⁻¹,45 M⁻¹ s⁻¹,–
fluoroacetate dehalogenase (FAcD) RPA1163 (Rhodopseudomonas palustris CGA009; F40A),1500 ± 400 µM,0.000483 ± 0.00015 s⁻¹,0.32 M⁻¹ s⁻¹,–
B1,–,–,–,stoichiometry N [7]: 2
